# Molecular target: the molecule itself
# Experiment: SEC
protein,measurement,value
"6 × HisMBP-SREBP-1a (1–198) (domain or fragment, human, UniProt P36956-1 1-198, looked up) MDEPPFSEAALEQALGEPCDLDAALLTDIEDMLQLINNQDSDFPGLFDPPYAGSGAGGTDPASPDTSSPGSLSPPPATLSSSLEAFLSGPQAAPSPLSPPQPAPTPLKMYPSMPAFSPGPGIKEESVPLSILQTPTPQPLPGALLPQSFPAPAPPQFSSTPVLGYPSPPGGFSTGSPPGNTQQPLPGLPLASPPGVPP",binding result,binds

# From PMC11238716 (ACS Medicinal Chemistry Letters, 2024)
